Reference: article PMC8646600 (2021)

B1: S-E6 full-length human IgG4e1(S228P) antibody (antibody, V domains shown)
VH: QVTLRESGPGLVKPSETLSLTCAVSGGSLSSVNYYWSWIRQHPGKGLEWIGYIYYSGSTNYNPSLKSRVTMSLDTSKNQFSLKLSSVTAADTAVYYCATPGAIMGALHIWGQGTLVTVSS
VL: QAVLTQPSSASSTPGQRVIISCSGSSSNIGSNTVSWYQQVPGAAPKLLIYFDYRRPSGVPDRFSGTRSGTSASLGISGLQSEDEADYYCAAWDDSLSAWVFGRGTKLTVL
B2: S-E6 Fab (Fab, V domains shown)
VH: B1 VH
VL: B1 VL
B3: S-B8 Fab (Fab, V domains shown)
VH: QVQLVQSGGGLIQPGGSLRLSCAASGFTVSLSHMNWVRQAPGKGLEWVSITYGDGNSDYADSVKGRFTISRDNSKNTLYLQMNSLRAEDTAVYYCAREYYYGMDVWGQGTTVTVSS
VL: not shown
B4: S-B8 full-length human IgG4e1(S228P) antibody (antibody, V domains shown)
VH: B3 VH
VL: not shown

Assays:
[1] = molecular target: SARS-CoV-2 spike RBD (S-RBD), hFc tag removed by thrombin digestion, biotinylated (SARS-CoV-2, UniProt P0DTC2 319-541); assay: BLI
[2] = molecular target: SARS-CoV-2 RBD titrated over immobilised Fabs (construct not stated) (SARS-CoV-2, UniProt P0DTC2 319-541); assay: BLI

Binder | koff [1] [s⁻¹] | koff [2] [s⁻¹]
B1 | 0.000865 | 
B2 |  | 0.00196
B3 |  | 0.0027
B4 | 0.00267 | 
